One assay has as its system XIAP. As to the kind of experiment: XIAP protein levels by Western blot in COS-7 cells. Type of assay: cell-based, African Green Monkey. The procedure: Protein extracts were prepared with lysis buffer (150 mM NaCl, 50 mM Tris-HCl (pH 8), 1% NP-40, 0.5% deoxycholate acid) with protease inhibitors. Lysates containing equal amounts of total protein were pre-cleared overnight with 1 mg mouse IgG (Sigma) coupled with protein A/G-Sepharose mix (Amersham Biosciences) and the beads centrifuged. Supernatants were immuno-precipitated using 5 μl of anti-ARTS antibody for 4 h, anti-XIAP antibody, rabbit anti-myc antibody, or mouse IgG (negative control). Protein A/G Sepharose beads were added for 1 hour and washed four times with PBS. Antibodies against XIAP (as above), Myc (Santa Cruz), or anti-ARTS (NT) antibodies directed against the common N′ terminus of ARTS and H5 (ProSci Incorporated) were used for Western blot.
Stably transfected COS-7 pE-ARTS cells were generated using the pEF1-IRES vector (Hobbs S et al, Biochem Biophys Res Commun 252: 368-372, 1998). The construct contains an EF-1 promoter followed by a multi cloning site, an EMC (Encephalomyocarditis virus) internal ribosome entry sites (IRES), and a puromycin resistance gene. AU5-tagged ARTS was inserted into the XhoI site downstream of the EF-1 promoter. The construct was stably transfected into COS-7 cells. The cells were maintained in medium containing 4 μg/ml puromycin.
Cells were treated for 2 hours with […] of the proteasome inhibitor (MG132, Calbiochem) prior to induction of apoptotis.
On the technique in general: Immunoblotting shows a protein as a band on a membrane.

The test system of the next assay is A549 cells. As to the kind of experiment: Caspase 3 activity assay in ARTS-transfected A549 cells. Type of assay: cell-based. On the procedure:
K562 and HL-60 cells were grown in RPMI 1640 medium. A549, COS-7 cells were grown in Dulbecco's modified Eagle medium (DMEM) with 4.5 grams/liter (g/L) D-glucose. All cells were grown at 37° C. in a 5% CO2 atmosphere. All media were supplemented with 10% fetal calf serum (FCS), penicillin (100 U/ml), streptomycin (100 micrograms (μg)/ml) and […] millimolar [mM]) (Biological Industries, Israel). pEF1-AU5 and pEF1-AU5-ARTS constructs were used for all ARTS transient transfection experiments. An AU5 tag was attached to the N' terminus of ARTS as described in ([…] et al, Nat Cell Biol 2: 915-921, 2000). The […] construct was generated by replacing three amino acids ([…]) at the GTP binding site, using site-directed mutagenesis (QuickChangeTM, Stratagene) with the primer: [NT] No: 1). COS-7, K562 and HL-60 cells were transiently transfected using electroporation (EasyjectTM plus-Equibio). A549 cells were transiently transfected using lipofectaminTM (Invitrogen) according to the manufacturer's protocol. The following apoptotic agents were used: TGF-beta (10 ng/ml) for 24 hours in medium containing 1% FCS; […] etoposide for 2 or 16 hours (Sigma); staurosporine (STS) ([…]) for 0-3 hours (Sigma); and arabinoside-c (ara-C, cytosar) (Pharmacia) at […] for 4 hours. In the case of transiently transfected cells, agents were added forty hours after transfections. […]

B1: AU5-ARTS (other)
chain: MIKRFLEDTTDDGELSKFVKDFSGNASCHPPEAKTWASRPQVPEPRPQAPDLYDDDLEFRPPSRPQSSDNQQYFCAPAPLSPSARPRSPWGKLDPYDSSEDDKEYVGFATLPNQVHRKSVKKGFDFTLMVAGESGLGKSTLVNSLFLTDLYRDRKLLGAEERIMQTVEITKHAVDIEEKGVRLRLTIVDTPGFGDAVNNTECWKPVAEYIDQQFEQYFRDESGLNRKNIQDNRVHCCLYFISPFGHGYGPSLRLLAPPGAVKGTGQEHQGQGCH
notes: Expressed in transfected COS-7 cells and used as lysate or stained in cells; also called pEF1-AU5-ARTS; AU5-tagged ARTS; not shown: AU5 tag attached to the N' terminus of ARTS
Turning to B1, in the assay on XIAP (COS-7 cells transiently transfected with pcDNA3-myc-XIAP and AU5-ARTS versus XIAP alone), the “amount of XIAP” value is given as “significantly decreased”. Further, the “levels of XIAP” value in the assay on XIAP (COS-7 pE-ARTS cells stably expressing high levels of ARTS) is reported as “significantly reduced levels of XIAP”. In addition, the XIAP protein levels entry with XIAP (transiently transfected COS-7 cells treated with 1 mM staurosporin (STS) for 0, 2 or 5 hours) was “reduced XIAP protein levels”. Also, the caspase-3 activity result was “little or no effect” with A549 cells (expression of ARTS in the absence of pro-apoptotic stimuli, A549 cells) and “increased caspase-3 activity” in the assay on A549 cells (over-expression of ARTS, A549 cells treated with TGF-β).

Source of the values: patent US20050227302A1, “Induction of apoptosis via ARTS-IAP complexes” (priority 2004, published 2005).
